Biological target: Omikron (Botswana, B.1.1.529) RBD (SARS-CoV-2 (Omicron, B.1.1.529)) (UniProt P0DTC2)
Experiment: ELISA

REGN10933 (Casirivimab) (antibody)
EC50: 39.4 nM
